The source of these data is patent publication US20050048066A1, “Identification of potential immunodominant acetylcholine receptor alpha subunit” (priority 2000, published 2005).

Assay [1] concerns the target solubilized HLA-DR3 (a mix of DRB1*0301 and DRB3*0101) (human). In words: competition binding. Also noted: unit not given beside the values.
For assay [2] the target is unchanged. Briefly: DELFIA competitive binding vs biotinylated MBP 84-102, solubilized HLA-DR3, pH 5.5.
The target in assay [3] is solubilized HLA-DR2 (a mix of DRB1*1501 and DRB5*0101) (human). Briefly: DELFIA competitive binding vs biotinylated MBP 84-102, solubilized HLA-DR2, pH 5.5.
In assay [4] the target is solubilized HLA-DR3 (a mix of DRB1*0301 and DRB3*0101) (human). Briefly: competition binding.
The target of assay [5] is solubilized HLA-DR2 (a mix of DRB1*1501 and DRB5*0101) (human). In words: competition binding.

By IC50 is commonly meant the concentration needed to halve the response being measured. As to “AChRα peptide 7-22 (from UniProt P02708 27-42)”, the IC50 in assay [1] was 6153 ?; in assay [2] it was 6.15 µM.
Take “AChRα peptide 36-49 (from UniProt P02708 56-69)”: the values for the IC50 in assay [3], in assay [1] and in assay [2] were 11 µM, 7299 ? and 7.3 µM, respectively.
As for “AChRα peptide 113-126 (from UniProt P02708 133-146)”, the IC50 in assay [4] is 73 µM.
Consider “AChRα peptide 145-163 (from UniProt P02708 165-183)”, for which the IC50 is 2 µM in assay [4] and 2002 ? in assay [1].
For “AChRα peptide 195-212 (from UniProt P02708 215-232)”, the IC50 in assay [5] is 36.8 µM; in assay [4] it was 6.04 µM; in assay [1], 6036 ?.
The substance “AChRα peptide 204-217 (from UniProt P02708 224-237)” had an IC50 in assay [2] of 71.3 µM.
The substance “AChRα peptide 310-327 (from UniProt P02708 330-347)” returned a concentration for half-maximal inhibition (IC50) in assay [5] of 4.19 µM.
In assay [4], “AChRα peptide 419-437 (from UniProt P02708 439-457)” had an IC50 of 48.9 µM.
